Assay results: article PMC11187563, “The importance of tyrosines in multimers of cyclic RGD nonapeptides: towards αvβ6-integrin targeted radiotherapeutics” (RSC Medicinal Chemistry, 2024)
Where two headings read alike, the source gives them in different places.

What was measured:
[1] = Ex vivo biodistribution of 177Lu-labeled peptide tetramers in H2009 xenografted SCID mice; conditions: CB17 SCID, mouse, iv, total radioactivity, H2009 bearing SCID mice; for tissue uptake at 1.5 h / tissue to tissue ratio at 1.5 h: 43 pmol, 90 min p.i.; for tissue uptake at 72 h / tissue to tissue ratio at 72 h: 64 pmol, 3 d p.i.
Protocol: (§1) The biodistribution of the ^177Lu-labeled peptide conjugates was investigated in severe combined immunodeficiency (SCID) mice bearing subcutaneous xenografts of the αvβ6-integrin expressing human lung adenocarcinoma cell line H2009 on their right shoulders. Two representative time points after i.v. administration (p.i.) were evaluated.
(§2) Analytical HPLC was performed on a Shimadzu (Kyoto, Japan) Prominence HPLC system equipped with either a Dr. Maisch ReproSil Pur C18 AQ 150 × 4.6 mm, 5 μm, 120 Å (AC1) or a Phenomenex Kinetex C18 150 × 4.6 mm 5 μm column (AC2). Semipreparative HPLC was performed on a Shimadzu HPLC system equipped with either a Dr. Maisch ReproSil Pur C18 AQ 250 × 10 mm, 5 μm, 120 Å column with 5 mL min^−1 flow (PC1) or a Dr. Maisch ReproSil Pur C18 150 × 30 mm, 5 μm, 120 Å column with 20 mL min^−1 flow (PC2). Solvents for both systems were water (A) and acetonitrile (B) each supplemented with 0.1% (vol) trifluoroacetic acid (TFA). ESI-MS spectra (positive mode) were recorded on a Shimadzu LC-MS 2020 single quadrupol mass spectrometer. Solvents for MS applications were water (A) and acetonitrile (B) each supplemented with 0.1% (vol) formic acid. The other experimental procedures (determination of log D7.4, cultivation of H2009 human lung adenocarcinoma cells, generation of tumor xenografts in CB17 SCID mice, and biodistribution) were performed as described before.[28] All animal experiments have been carried out according to applicable law and institutional guidelines of Technical University of Munich, and were approved by the responsible local authority (Regierung von Oberbayern). The H2009 cells were regularly authenticated and tested for mycoplasma contamination. DOTPI-tetraazide,[43]FF (previously termed AvB6),[29]FY,[34] and YY (also referred to as Tyr2-alkyne)[36] were synthesized as described previously.

[2] = test system: αvβ6-integrin expressing human lung adenocarcinoma cell line H2009 xenografts; assay: as above; conditions: H2009 bearing SCID mice
Protocol: as §1, §2

[3] = H2009 tumor, read-out: Tumor H2009 %IA/g
[4] = adrenals, read-out: Adrenals %IA/g
[5] = heart (myocard), read-out: Heart (myocard) %IA/g
[6] = kidneys, read-out: Kidneys %IA/g
[7] = large intestine (empty), read-out: Large intestine (empty) %IA/g
[8] = pancreas, read-out: Pancreas %IA/g
[9] = small intestine (empty), read-out: Small intestine (empty) %IA/g
[10] = stomach (empty), read-out: Stomach (empty) %IA/g
[11] = tumor/blood, read-out: tumor/organ ratio, Blood
[12] = tumor/heart (myocard), read-out: tumor/organ ratio, Heart (myocard)
[13] = tumor/liver, read-out: tumor/organ ratio, Liver
[14] = tumor/lung, read-out: tumor/organ ratio, Lung
[15] = tumor/pancreas, read-out: tumor/organ ratio, Pancreas
[16] = tumor/spleen, read-out: tumor/organ ratio, Spleen

SMILES: CC(C)C[C@@H]1NC(=O)[C@H](CC(=O)O)NC(=O)CNC(=O)[C@H](CCCNC(=N)N)NC(=O)[C@H](Cc2ccccc2)NC(=O)[C@H](CCCCNC(=O)CCc2cn(CCCNC(=O)CCP(=O)(O)CN3CCN(CP(=O)(O)CCC(=O)NCCCn4cc(CCC(=O)NCCCC[C@H]5C(=O)N[C@@H](Cc6ccccc6)C(=O)N[C@@H](CCCNC(=N)N)C(=O)NCC(=O)N[C@@H](CC(=O)O)C(=O)N[C@@H](CC(C)C)C(=O)N[C@@H](C)C(=O)N[C@@H](Cc6ccc(O)cc6)C(=O)N6CCC[C@@H]6C(=O)N5C)nn4)CCN(CP(=O)(O)CCC(=O)NCCCn4cc(CCC(=O)NCCCC[C@H]5C(=O)N[C@@H](Cc6ccccc6)C(=O)N[C@@H](CCCNC(=N)N)C(=O)NCC(=O)N[C@@H](CC(=O)O)C(=O)N[C@@H](CC(C)C)C(=O)N[C@@H](C)C(=O)N[C@@H](Cc6ccc(O)cc6)C(=O)N6CCC[C@@H]6C(=O)N5C)nn4)CCN(CP(=O)(O)CCC(=O)NCCCn4cc(CCC(=O)NCCCC[C@H]5C(=O)N[C@@H](Cc6ccccc6)C(=O)N[C@@H](CCCNC(=N)N)C(=O)NCC(=O)N[C@@H](CC(=O)O)C(=O)N[C@@H](CC(C)C)C(=O)N[C@@H](C)C(=O)N[C@@H](Cc6ccc(O)cc6)C(=O)N6CCC[C@@H]6C(=O)N5C)nn4)CC3)nn2)N(C)C(=O)[C@H]2CCCN2C(=O)[C@H](Cc2ccc(O)cc2)NC(=O)[C@H](C)NC1=O [Compound 177Lu-Y4, metal not drawn]
- tissue uptake at 1.5 h [1, 3]: 6.91 %ID/g
- tissue uptake at 72 h [1, 3]: 2.07 %ID/g
- tissue uptake at 1.5 h [1, 4]: 0.52 %ID/g
- tissue uptake at 72 h [1, 4]: 0.9 %ID/g
- tissue uptake at 1.5 h ([1]; blood, read-out: Blood %IA/g): 1.33 %ID/g
- tissue uptake at 72 h ([1]; blood, read-out: Blood %IA/g): 0.02 %ID/g
- tissue uptake at 1.5 h ([1]; bone, read-out: Bone %IA/g): 1.84 %ID/g
- tissue uptake at 72 h ([1]; bone, read-out: Bone %IA/g): 0.55 %ID/g
- tissue uptake at 1.5 h [1, 5]: 0.74 %ID/g
- tissue uptake at 72 h [1, 5]: 0.27 %ID/g
- tissue uptake at 1.5 h [1, 6]: 219 %ID/g
- tissue uptake at 72 h [1, 6]: 203 %ID/g
- tissue uptake at 1.5 h [1, 7]: 6.99 %ID/g
- tissue uptake at 72 h [1, 7]: 1.33 %ID/g
- tissue uptake at 1.5 h ([1]; liver, read-out: Liver %IA/g): 1.06 %ID/g
- tissue uptake at 72 h ([1]; liver, read-out: Liver %IA/g): 0.88 %ID/g
- tissue uptake at 1.5 h ([1]; lung, read-out: Lung %IA/g): 6.74 %ID/g
- tissue uptake at 72 h ([1]; lung, read-out: Lung %IA/g): 1.21 %ID/g
- tissue uptake at 1.5 h ([1]; muscle, read-out: Muscle %IA/g): 1 %ID/g
- tissue uptake at 72 h ([1]; muscle, read-out: Muscle %IA/g): 0.28 %ID/g
- tissue uptake at 1.5 h [1, 8]: 0.37 %ID/g
- tissue uptake at 72 h [1, 8]: 0.19 %ID/g
- tissue uptake at 1.5 h [1, 9]: 3.05 %ID/g
- tissue uptake at 72 h [1, 9]: 0.26 %ID/g
- tissue uptake at 1.5 h ([1]; spleen, read-out: Spleen %IA/g): 4.71 %ID/g
- tissue uptake at 72 h ([1]; spleen, read-out: Spleen %IA/g): 1.31 %ID/g
- tissue uptake at 1.5 h [1, 10]: 10.7 %ID/g
- tissue uptake at 72 h [1, 10]: 3.88 %ID/g
- tissue to tissue ratio at 72 h ([1]; tumor / adrenals, read-out: tumor/organ ratio, Adrenals): 4.1
- tissue to tissue ratio at 72 h ([1]; tumor / bone, read-out: tumor/organ ratio, Bone): 3.8
- tissue to tissue ratio at 72 h ([1]; tumor / large intestine (empty), read-out: tumor/organ ratio, Large intestine (empty)): 1.6
- tissue to tissue ratio at 72 h ([1]; tumor / muscle, read-out: tumor/organ ratio, Muscle): 9.1
- tissue to tissue ratio at 72 h ([1]; tumor / small intestine (empty), read-out: tumor/organ ratio, Small intestine (empty)): 8.2
- tissue to tissue ratio at 72 h ([1]; tumor / stomach (empty), read-out: tumor/organ ratio, Stomach (empty)): 0.6
- tissue to tissue ratio at 1.5 h ([1]; tumor/adrenals, read-out: tumor/organ ratio, Adrenals): 13.9
- tissue to tissue ratio at 1.5 h [1, 11]: 5.2
- tissue to tissue ratio at 72 h [1, 11]: 108
- tissue to tissue ratio at 1.5 h ([1]; tumor/bone, read-out: tumor/organ ratio, Bone): 3.8
- tissue to tissue ratio at 1.5 h [1, 12]: 9.6
- tissue to tissue ratio at 72 h [1, 12]: 8.2
- tissue to tissue ratio at 1.5 h ([1]; tumor/large intestine (empty), read-out: tumor/organ ratio, Large intestine (empty)): 1
- tissue to tissue ratio at 1.5 h [1, 13]: 6.6
- tissue to tissue ratio at 72 h [1, 13]: 2.6
- tissue to tissue ratio at 1.5 h [1, 14]: 1
- tissue to tissue ratio at 72 h [1, 14]: 1.7
- tissue to tissue ratio at 1.5 h ([1]; tumor/muscle, read-out: tumor/organ ratio, Muscle): 8.2
- tissue to tissue ratio at 1.5 h [1, 15]: 18.6
- tissue to tissue ratio at 72 h [1, 15]: 11.3
- tissue to tissue ratio at 1.5 h ([1]; tumor/small intestine (empty), read-out: tumor/organ ratio, Small intestine (empty)): 2.6
- tissue to tissue ratio at 1.5 h [1, 16]: 1.5
- tissue to tissue ratio at 72 h [1, 16]: 1.7
- tissue to tissue ratio at 1.5 h ([1]; tumor/stomach (empty), read-out: tumor/organ ratio, Stomach (empty)): 0.7
- tumor/organ ratio, Kidneys ([2]; 90 min p.i.): 0.0
- tumor/organ ratio, Kidneys ([2]; 3 d p.i.): 0.0
